Measured values from the supplement of paper PMC10567573.

B1: TRIM43 (parent)
chain: YQEIFQQLQRSWVKMDQKSKHLKE
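Also: lentivirally expressed fusions sorted by FACS into six bins by GFP to DsRed ratio, PSI derived from sequencing read proportions per bin multiplied by bin number.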

Variants of: B1
Experiment: protein stability index of a GFP-peptide fusion (GPS, HEK-293T) (PSI 1-6); higher = more stable
Details: c terminus: a fixed tail appended
With YQEIFQQLQRSWVKMDQKSKQLKE the protein stability index was 2.28.
YQEIFQQLQRSWVKMDQKSKSLKE gave a protein stability index of 2.37.
In the case of YQEIFQQLQRSWVKMDQKSKGLKE, the protein stability index is reported as 2.33.
With YQEIFQQLQRSWVKMDQKSKKLKE the protein stability index was 2.04.
Variant YQEIFQQLQRSWVKMDQKSKDLKE has a protein stability index of 2.56.
With YQEIFQQLQRSWVKMDQKSKLLKE the protein stability index was 1.91.
YQEIFQQLQRSWVKMDQKSKNLKE showed a protein stability index of 2.59.
For YQEIFQQLQRSWVKMDQKSKYLKE, the protein stability index was 2.27.
With YQEIFQQLQRSWVKMDQKSKVLKE the protein stability index was 1.79.
Variant YQEIFQQLQRSWVKMDQKSKPLKE has a protein stability index of 1.64.
Variant YQEIFQQLQRSWVKMDQKSKTLKE has a protein stability index of 2.28.
In the case of YQEIFQQLQRSWVKMDQKSKALKE, the protein stability index is reported as 2.23.
With YQEIFQQLQRSWVKMDQKSKCLKE the protein stability index was 2.65.
YQEIFQQLQRSWVKMDQKSKRLKE gave a protein stability index of 2.53.
For YQEIFQQLQRSWVKMDQKSKILKE, the protein stability index was 2.09.
With YQEIFQQLQRSWVKMDQKSKWLKE the protein stability index was 1.53.
For YQEIFQQLQRSWVKMDQKSKMLKE, the protein stability index was 2.5.
YQEIFQQLQRSWVKMDQKSKELKE gave a protein stability index of 2.68.
Work on YQEIFQQLQRSWVKMDQKSKFLKE yielded a protein stability index of 1.94.
In the case of YQEIFQQLQRSWVKMDQKQKHLKE, the protein stability index is reported as 2.14.
Variant YQEIFQQLQRSWVKMDQKTKHLKE has a protein stability index of 2.86.
Variant YQEIFQQLQRSWVKMDQKVKHLKE has a protein stability index of 2.12.
Work on YQEIFQQLQRSWVKMDQKNKHLKE yielded a protein stability index of 2.35.
YQEIFQQLQRSWVKMDQKRKHLKE gave a protein stability index of 1.98.
Work on YQEIFQQLQRSWVKMDQKPKHLKE yielded a protein stability index of 2.3.
Variant YQEIFQQLQRSWVKMDQKYKHLKE has a protein stability index of 3.
In the case of YQEIFQQLQRSWVKMDQKWKHLKE, the protein stability index is reported as 2.56.
YQEIFQQLQRSWVKMDQKSKHMKE gave a protein stability index of 2.13.
Variant YQEIFQQLQRSWVKMDQKSKHVKE has a protein stability index of 2.39.
Work on YQEIFQQLQRSWVKMDQKSKHYKE yielded a protein stability index of 1.92.
For YQEIFQQLQRSWVKMDQKSKHRKE, the protein stability index was 2.75.
YQEIFQQLQRSWVKMDQKSKHSKE gave a protein stability index of 3.29.
In the case of YQEIFQQLQRSWVKMDQKSKHPKE, the protein stability index is reported as 2.94.
In the case of YQEIFQQLQRSWVKMDQKSKHQKE, the protein stability index is reported as 2.91.
YQEIFQQLQRSWVKMDQKSKHAKE gave a protein stability index of 2.22.
In the case of YQEIFQQLQRSWVKMDQKSKHKKE, the protein stability index is reported as 2.45.
Work on YQEIFQQLQRSWVKMDQKSKHCKE yielded a protein stability index of 2.6.
YQEIFQQLQRSWVKMDQKSKHTKE gave a protein stability index of 2.62.
YQEIFQQLQRSWVKMDQKSKHWKE showed a protein stability index of 1.65.
In the case of YQEIFQQLQRSWVKMDQKSKHEKE, the protein stability index is reported as 3.27.
Work on YQEIFQQLQRSWVKMDQKSKHFKE yielded a protein stability index of 1.91.
Variant YQEIFQQLQRSWVKMDQKSKHHKE has a protein stability index of 2.35.
YQEIFQQLQRSWVKMDQKSKHNKE gave a protein stability index of 2.53.
In the case of YQEIFQQLQRSWVKMDQKSKHGKE, the protein stability index is reported as 2.6.
With YQEIFQQLQRSWVKMDQKSKHDKE the protein stability index was 3.28.
Work on YQEIFQQLQRSWVKMDQKSKHIKE yielded a protein stability index of 2.21.
YQEIFQQLQRSWVKMDQKSKHLEE gave a protein stability index of 2.6.
Variant YQEIFQQLQRSWVKMDQKSKHLRE has a protein stability index of 1.22.
Variant YQEIFQQLQRSWVKMDQKSKHLAE has a protein stability index of 2.92.
YQEIFQQLQRSWVKMDQKSKHLFE showed a protein stability index of 1.47.
With YQEIFQQLQRSWVKMDQKSKHLQE the protein stability index was 2.11.
Variant YQEIFQQLQRSWVKMDQKSKHLLE has a protein stability index of 1.66.
Variant YQEIFQQLQRSWVKMDQKSKHLIE has a protein stability index of 3.31.
YQEIFQQLQRSWVKMDQKSKHLWE showed a protein stability index of 2.33.
YQEIFQQLQRSWVKMDQKSKHLTE gave a protein stability index of 2.14.
Work on YQEIFQQLQRSWVKMDQKSKHLCE yielded a protein stability index of 1.74.
Variant YQEIFQQLQRSWVKMDQKSKHLHE has a protein stability index of 1.79.
YQEIFQQLQRSWVKMDQKSKHLSE gave a protein stability index of 2.15.
For YQEIFQQLQRSWVKMDQKSKHLGE, the protein stability index was 2.54.
For YQEIFQQLQRSWVKMDQKSKHLNE, the protein stability index was 2.03.
For YQEIFQQLQRSWVKMDQKSKHLPE, the protein stability index was 2.08.
YQEIFQQLQRSWVKMDQKSKHLDE showed a protein stability index of 2.41.
In the case of YQEIFQQLQRSWVKMDQKSKHLME, the protein stability index is reported as 2.33.
Work on YQEIFQQLQRSWVKMDQKSKHLVE yielded a protein stability index of 1.92.
Work on YQEIFQQLQRSWVKMDQKSKHLYE yielded a protein stability index of 1.58.
In the case of YQEIFQQLQRSWVKMDQKSEHLKE, the protein stability index is reported as 2.85.
For YQEIFQQLQRSWVKMDQKSLHLKE, the protein stability index was 1.82.
In the case of YQEIFQQLQRSWVKMDQKSTHLKE, the protein stability index is reported as 1.86.
Variant YQEIFQQLQRSWVKMDQKSHHLKE has a protein stability index of 2.19.
Variant YQEIFQQLQRSWVKMDQKSWHLKE has a protein stability index of 2.42.
Variant YQEIFQQLQRSWVKMDQKSFHLKE has a protein stability index of 2.56.
Variant YQEIFQQLQRSWVKMDQKSMHLKE has a protein stability index of 2.24.
Work on YQEIFQQLQRSWVKMDQKSGHLKE yielded a protein stability index of 2.31.
YQEIFQQLQRSWVKMDQKSDHLKE gave a protein stability index of 2.
With YQEIFQQLQRSWVKMDQKSPHLKE the protein stability index was 2.48.
Variant YQEIFQQLQRSWVKMDQKSQHLKE has a protein stability index of 2.36.
YQEIFQQLQRSWVKMDQKSVHLKE gave a protein stability index of 1.94.
Work on YQEIFQQLQRSWVKMDQKSSHLKE yielded a protein stability index of 1.85.
For YQEIFQQLQRSWVKMDQKSAHLKE, the protein stability index was 2.74.
Work on YQEIFQQLQRSWVKMDQKSCHLKE yielded a protein stability index of 1.76.
YQEIFQQLQRSWVKMDQKSNHLKE gave a protein stability index of 2.44.
For YQEIFQQLQRSWVKMDQKSRHLKE, the protein stability index was 1.59.
Variant YQEIFQQLQRSWVKMDQKSIHLKE has a protein stability index of 1.95.
In the case of YQEIFQQLQRSWVKMDQKSYHLKE, the protein stability index is reported as 1.68.
For YQEIFQQLQRSWVKMDQKSKHLKI, the protein stability index was 1.78.
YQEIFQQLQRSWVKMDQKSKHLKM gave a protein stability index of 1.71.
Work on YQEIFQQLQRSWVKMDQKSKHLKV yielded a protein stability index of 1.81.
For YQEIFQQLQRSWVKMDQKSKHLKT, the protein stability index was 1.91.
YQEIFQQLQRSWVKMDQKSKHLKQ gave a protein stability index of 1.57.
For YQEIFQQLQRSWVKMDQKSKHLKG, the protein stability index was 1.78.
With YQEIFQQLQRSWVKMDQKSKHLKY the protein stability index was 1.95.
Variant YQEIFQQLQRSWVKMDQKSKHLKL has a protein stability index of 2.45.
Work on YQEIFQQLQRSWVKMDQKSKHLKF yielded a protein stability index of 1.92.
With YQEIFQQLQRSWVKMDQKSKHLKS the protein stability index was 2.78.
For YQEIFQQLQRSWVKMDQKSKHLKK, the protein stability index was 1.99.
In the case of YQEIFQQLQRSWVKMDQKSKHLKW, the protein stability index is reported as 2.41.
YQEIFQQLQRSWVKMDQKSKHLKH showed a protein stability index of 2.33.
YQEIFQQLQRSWVKMDQKSKHLKD showed a protein stability index of 2.48.
In the case of YQEIFQQLQRSWVKMDQKSKHLKR, the protein stability index is reported as 1.8.
YQEIFQQLQRSWVKMDQKSKHLKC showed a protein stability index of 2.13.
YQEIFQQLQRSWVKMDQKSKHLKN showed a protein stability index of 2.28.
In the case of YQEIFQQLQRSWVKMDQKSKHLKA, the protein stability index is reported as 1.89.
YQEIFQQLQRSWVKMDQKSKHLKP gave a protein stability index of 1.81.
